Assay results: article PMC11761524 (bioRxiv, 2025)

B1: Cyclin F loop mutant: Flag-Cyclin F mutant containing D504-T511 all changed to alanine (protein)
chain: MGSGGVVHCRCAKCFCYPTKRRIRRRPRNLTILSLPEDVLFHILKWLSVEDILAVRAVHSQLKDLVDNHASVWACASFQELWPSPGNLKLFERAAEKGNFEAAVKLGIAYLYNEGLSVSDEARAEVNGLKASRFFSLAERLNVGAAPFIWLFIRPPWSVSGSCCKAVVHESLRAECQLQRTHKASILHCLGRVLSLFEDEEKQQQAHDLFEEAAHQGCLTSSYLLWESDRRTDVSDPGRCLHSFRKLRDYAAKGCWEAQLSLAKACANANQLGLEVRASSEIVCQLFQASQAVSKQQVFSVQKGLNDTMRYILIDWLVEVATMKDFTSLCLHLTVECVDRYLRRRLVPRYRLQLLGIACMVICTRFISKEILTIREAVWLTDNTYKYEDLVRMMGEIVSALEGKIRVPTVVDYKEVLLTLVPVELRTQHLCSFLCELSLLHTSLSAYAPARLAAAALLLARLTHGQTQPWTTQLWDLTGFSYEDLIPCVLSLHKKCFHDDAPKAAAAAAAAAVKQRFEDKRYGEISQEEVLSYSQLCAALGVTQDSPDPPTFLSTGEIHAFLSSPSGRRTKRKRENSLQEDRGSFVTTPTAELSSQEETLLGSFLDWSLDCCSGYEGDQESEGEKEGDVTAPSGILDVTVVYLNPEQHCCQESSDEEACPEDKGPQDPQALALDTQIPATPGPKPLVRTSREPGKDVTTSGYSSVSTASPTSSVDGGLGALPQPTSVLSLDSDSHTQPCHHQARKSCLQCRPPSPPESSVPQQQVKRINLCIHSEEEDMNLGLVRL
modifications: left off: Flag, end not stated, kept

Experiments:
GST-Cyclin A (173–432) = GST-Cyclin A (173–432) (UniProt P20248); assay: fluorescence polarisation
UniProt P20248, sequence (P20248 173-432): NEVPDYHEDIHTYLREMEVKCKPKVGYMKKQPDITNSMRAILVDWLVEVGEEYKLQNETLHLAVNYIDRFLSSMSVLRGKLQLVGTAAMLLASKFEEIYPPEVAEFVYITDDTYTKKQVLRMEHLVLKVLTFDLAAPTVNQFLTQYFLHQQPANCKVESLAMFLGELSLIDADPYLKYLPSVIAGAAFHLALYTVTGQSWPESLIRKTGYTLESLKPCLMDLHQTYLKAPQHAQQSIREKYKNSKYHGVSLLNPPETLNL

[1] = target: strep-Cyclin F (1–546)-GST-Skp1 (1–163) (human) (UniProt P41002); assay: fluorescence polarisation
CP110 = assay: Coimmunoprecipitation of Flag-Cyclin F with endogenous CP110 in HEK293T cells; assay type: cell-based; details: anti-Flag IP, Western blot, vs WT Cyclin F
CDC6 = assay: Coimmunoprecipitation of Flag-Cyclin F with endogenous CDC6 in HEK293T cells; assay type: cell-based; details: anti-Flag IP, Western blot, vs WT Cyclin F

| Molecule | fold decrease in affinity against the wild-type E2F1 peptide (GST-Cyclin A (173–432)) [fold] | fold decrease in affinity against the wild-type E2F1 peptide [1] [fold] | association with CP110 (coimmunoprecipitation) (CP110) | association with CDC6 (coimmunoprecipitation) (CDC6) |
| --- | --- | --- | --- | --- |
| E2F1 peptide D93R (unlabeled) (from UniProt Q01094 84-99) | 3 | 3 | – | – |
| E2F1 peptide R91E (unlabeled) (from UniProt Q01094 84-99) | 12 | 41 | – | – |
| E2F1 peptide K89E (unlabeled) (from UniProt Q01094 84-99) | 48 | 24 | – | – |
| E2F1 peptide V88E (unlabeled) (from UniProt Q01094 84-99) | 460 | 31 | – | – |
| B1 | – | – | weaker association was more apparent | weaker association was more apparent |
